Article PMC6945063 (2019)

Target: His‐GABARAP‐L2 S87/88D (human, UniProt P60520 1-117, S87/88D | S87/88D)
Assay: BLI

B1: GST‐ATG4A (enzyme)
chain: MESVLSKYEDQITIFTDYLEEYPDTDELVWILGKQHLLKTEKSKLLSDISARLWFTYRRKFSPIGGTGPSSDAGWGCMLRCGQMMLAQALICRHLGRDWSWEKQKEQPKEYQRILQCFLDRKDCCYSIHQMAQMGVGEGKSIGEWFGPNTVAQVLKKLALFDEWNSLAVYVSMDNTVVIEDIKKMCRVLPLSADTAGDRPPDSLTASNQSKGTSAYCSAWKPLLLIVPLRLGINQINPVYVDAFKECFKMPQSLGALGGKPNNAYYFIGFLGDELIFLDPHTTQTFVDTEENGTVNDQTFHCLQSPQRMNILNLDPSVALGFFCKEEKDFDNWCSLVQKEILKENLRMFELVQKHPSHWPPFVPPAKPEVTTTGAEFIDSTEQLEEFDLEEDFEILSV
Work on B1 yielded a Kd of 24 µM.
